Data: PMC11148069 (The EMBO Journal, 2024)
One block for each binder: values may come before it.

Key:
[1] = target: T1, His14-NEDD8-tagged APD of xtNup98 (715–866) (Xenopus tropicalis, UniProt A0A1B8XZT4); assay: pull-down; His14-NEDD8-APD of xtNup98 immobilised on Ni2+ chelate matrix, incubated with xNup98-Nb1t or xhNup98-Nb2i, then xNup96(1–20)-RFP or xtNup88(2–500) added; eluted by NEDP1; SDS-PAGE/Coomassie; conditions: both partners purified
T1 construct: held on the Ni2+ chelate matrix by the tag; the tag was cleaved by NEDP1 only for elution; also called Nup98-APD; immobilized APD; source: E. coli NEB Express, purified

[2] = target: T2, Xenopus Nup98, endogenous (Xenopus laevis (egg extract, assumed), UniProt A0A8J1MFV7); assay: immunostaining of cells or tissue; digitonin-semi-permeabilized sfGFP-Nup107 HeLa cells incubated 2 h at RT with buffer or Xenopus egg extract, energy mix and 35 nM fluorescent tracking nanobodies; Airyscan confocal microscopy; conditions: one partner purified
T2 construct: Nup98, the cut product of the Nup98–Nup96 fusion protein (Nup196); the egg extract contains the already cleaved entities; also called xNup98; source: endogenous, soluble fraction of Xenopus egg extract; also as recruited from the extract to NPCs

[3] = target: T3, recombinant human Nup93 target (BLI) (human, UniProt Q8N1F7); assay: BLI; nanobodies (biotin-[PEG]3-maleimide on two ectopic cysteines) immobilised on High Precision Streptavidin sensors; target proteins at 30–100 nM; 25 °C; PBS pH 7.4, 0.02% Tween-20, 0.1% BSA; apparent KDs; conditions: both partners purified
T3 construct: Nup93, human; the immunogen was the Nup93 α-solenoid domain; also called hNup93; source: E. coli NEB Express, purified

[4] = target: T4, recombinant Xenopus Nup93 target (BLI) (Xenopus, UniProt Q7ZX96); assay: as above; conditions: both partners purified
T4 construct: Nup93, Xenopus; the immunogen was the Nup93 α-solenoid domain; also called xNup93; source: E. coli NEB Express, purified

[5] = target: T5, xNup93(168–820), α-solenoid domain of Xenopus laevis Nup93 (Xenopus laevis, UniProt Q7ZX96); assay: cryo-EM structure; equimolar trimeric xNup93(168–820)·xhNup93-Nb4i·xNup93-Nb2t complex; 4.4 Å reconstruction; conditions: both partners purified
T5 construct: also called Nup93 α-solenoid domain; source: E. coli NEB Express, purified, untagged

[6] = target: T6, Xenopus Nup93, endogenous (Xenopus (endogenous in egg extract), UniProt Q7ZX96); assay: pull-down; (biotin)-Avi-SUMO^Eu1-nanobodies on streptavidin-agarose, incubated with HeLa lysate or soluble fraction of Xenopus egg extract, 40 min, 4 °C; eluted by SENP^EuB; SDS-PAGE/Coomassie, identities confirmed by mass spectrometry; conditions: one partner purified
T6 construct: Nup93 of Xenopus egg extract; also called xNup93; source: endogenous, soluble fraction of Xenopus egg extract

[7] = target: T7, human Nup93, endogenous (human (endogenous in HeLa), UniProt Q8N1F7); assay: as above; conditions: one partner purified
T7 construct: Nup93, human; also called hNup93; source: endogenous, HeLa lysate

[8] = target: T8, hNup35 (residues 173–248), RRM domain (human, UniProt Q8NFH5); assay: crystal structure; hNup35(173–248)·xhNup35-Nb1t complex; 0.05 M HEPES pH 6.5, 25% PEG400, 0.05 M NaCl, 0.01 M MgCl2; conditions: both partners purified
T8 construct: Nup35 (also called Nup53 or MP44), human, RRM domain, residues 173-248; also called homodimeric RRM domain of Homo sapiens (h)Nup35; Nup35 RRM; source: E. coli NEB Express, purified, untagged

[9] = target: T9, human Nup35, endogenous (Homo sapiens (HeLa), UniProt Q8NFH5); assay: immunostaining of cells or tissue; sfGFP-Nup107 HeLa cells, PFA-fixed and Triton X-100-permeabilized or unfixed and digitonin-semi-permeabilized; 35 nM Alexa Fluor 647-labelled nanobody, 30 min, RT; confocal microscopy; conditions: one partner purified
T9 construct: Nup35, human; also called hNup35; source: endogenous, in NPCs of HeLa cells

[10] = target: T10, Xenopus Nup35, endogenous (Xenopus laevis (egg extract), UniProt Q6INW0); assay: immunostaining of cells or tissue; digitonin-semi-permeabilized sfGFP-Nup107 HeLa cells incubated 2 h at RT with buffer or Xenopus egg extract, energy mix and 35 nM fluorescent tracking nanobodies; Airyscan confocal microscopy; conditions: one partner purified
T10 construct: Nup35 of Xenopus egg extract; also called xNup35; source: endogenous, from Xenopus egg extract, in newly assembled NPCs

[11] = target: T11, xNup98-APD (residues 714–864), autoproteolytic domain of Xenopus tropicalis Nup98 (Xenopus tropicalis); assay: crystal structure; xNup98-APD(714–864) with xhNup98-Nb2i or xhNup98-Nb3i; 2.5% PEG6000, 25% PEG MME500, 100 mM Tris/HCl pH 9; conditions: both partners purified
T11 construct: also called APD of Xenopus tropicalis xNup98; source: E. coli NEB Express, purified, untagged
T11 chain: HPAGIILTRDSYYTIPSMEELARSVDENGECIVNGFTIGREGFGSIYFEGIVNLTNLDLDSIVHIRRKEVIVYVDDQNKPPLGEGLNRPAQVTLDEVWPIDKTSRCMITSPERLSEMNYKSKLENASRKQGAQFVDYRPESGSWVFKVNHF

[12] = target: T12, human Nup98, endogenous (human (endogenous in HeLa), UniProt P52948); assay: pull-down; (biotin)-Avi-SUMO^Eu1-nanobodies on streptavidin-agarose, incubated with HeLa lysate or soluble fraction of Xenopus egg extract, 40 min, 4 °C; eluted by SENP^EuB; SDS-PAGE/Coomassie, identities confirmed by mass spectrometry; conditions: one partner purified
T12 construct: Nup98, the cut product of the Nup98–Nup96 fusion protein, human; also called hNup98; source: endogenous, HeLa lysate; also in NPCs of semi-permeabilized HeLa cells

[13] = target: T2, Xenopus Nup98, endogenous; assay: as above; conditions: one partner purified
[14] = target: the molecule itself; assay: crystal structure; hNup35(173–248)·xhNup35-Nb1t complex; 0.05 M HEPES pH 6.5, 25% PEG400, 0.05 M NaCl, 0.01 M MgCl2

T5 sequence (Q7ZX96 168-820): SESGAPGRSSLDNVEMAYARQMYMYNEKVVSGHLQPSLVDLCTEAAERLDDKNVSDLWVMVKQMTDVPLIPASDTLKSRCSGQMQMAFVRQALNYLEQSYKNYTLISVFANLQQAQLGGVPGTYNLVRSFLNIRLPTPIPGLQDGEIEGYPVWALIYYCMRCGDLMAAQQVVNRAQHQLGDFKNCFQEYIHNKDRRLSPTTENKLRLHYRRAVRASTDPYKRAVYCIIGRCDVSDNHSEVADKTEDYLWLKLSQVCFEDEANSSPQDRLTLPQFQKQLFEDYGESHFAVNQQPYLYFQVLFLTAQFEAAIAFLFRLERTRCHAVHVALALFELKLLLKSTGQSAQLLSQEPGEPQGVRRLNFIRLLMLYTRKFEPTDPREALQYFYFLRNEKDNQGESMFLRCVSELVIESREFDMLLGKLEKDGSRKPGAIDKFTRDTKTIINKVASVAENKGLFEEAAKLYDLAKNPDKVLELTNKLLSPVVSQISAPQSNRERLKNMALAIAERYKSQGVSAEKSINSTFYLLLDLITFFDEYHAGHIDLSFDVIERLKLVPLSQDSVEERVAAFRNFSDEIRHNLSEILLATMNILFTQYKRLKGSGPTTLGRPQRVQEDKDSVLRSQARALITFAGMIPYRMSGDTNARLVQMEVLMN
T6 sequence (Q7ZX96 whole entry): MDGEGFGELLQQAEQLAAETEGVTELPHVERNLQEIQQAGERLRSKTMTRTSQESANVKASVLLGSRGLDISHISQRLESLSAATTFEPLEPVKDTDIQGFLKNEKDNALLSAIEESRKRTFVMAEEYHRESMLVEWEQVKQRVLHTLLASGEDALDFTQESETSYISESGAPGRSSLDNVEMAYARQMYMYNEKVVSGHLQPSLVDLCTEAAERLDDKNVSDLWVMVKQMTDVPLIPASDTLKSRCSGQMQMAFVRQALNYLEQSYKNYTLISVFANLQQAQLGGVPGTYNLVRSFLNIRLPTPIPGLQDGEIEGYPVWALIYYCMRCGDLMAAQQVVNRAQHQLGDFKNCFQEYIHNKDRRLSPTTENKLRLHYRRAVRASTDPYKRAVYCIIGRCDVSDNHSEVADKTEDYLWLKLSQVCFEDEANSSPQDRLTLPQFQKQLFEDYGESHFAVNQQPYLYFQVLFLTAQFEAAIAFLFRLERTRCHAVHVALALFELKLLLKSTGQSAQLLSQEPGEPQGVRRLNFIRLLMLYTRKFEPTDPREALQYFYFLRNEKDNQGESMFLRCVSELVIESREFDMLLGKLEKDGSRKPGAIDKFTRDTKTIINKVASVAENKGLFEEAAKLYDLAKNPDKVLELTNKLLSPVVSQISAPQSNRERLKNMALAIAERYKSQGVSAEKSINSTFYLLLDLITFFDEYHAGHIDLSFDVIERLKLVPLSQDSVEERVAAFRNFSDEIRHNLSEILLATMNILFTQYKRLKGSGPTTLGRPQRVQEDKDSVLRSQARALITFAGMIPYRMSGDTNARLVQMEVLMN
T4 sequence (Q7ZX96 whole entry, the tested form may be a part): as the sequence (Q7ZX96 whole entry) above
T3 sequence (Q8N1F7 whole entry, the tested form may be a part): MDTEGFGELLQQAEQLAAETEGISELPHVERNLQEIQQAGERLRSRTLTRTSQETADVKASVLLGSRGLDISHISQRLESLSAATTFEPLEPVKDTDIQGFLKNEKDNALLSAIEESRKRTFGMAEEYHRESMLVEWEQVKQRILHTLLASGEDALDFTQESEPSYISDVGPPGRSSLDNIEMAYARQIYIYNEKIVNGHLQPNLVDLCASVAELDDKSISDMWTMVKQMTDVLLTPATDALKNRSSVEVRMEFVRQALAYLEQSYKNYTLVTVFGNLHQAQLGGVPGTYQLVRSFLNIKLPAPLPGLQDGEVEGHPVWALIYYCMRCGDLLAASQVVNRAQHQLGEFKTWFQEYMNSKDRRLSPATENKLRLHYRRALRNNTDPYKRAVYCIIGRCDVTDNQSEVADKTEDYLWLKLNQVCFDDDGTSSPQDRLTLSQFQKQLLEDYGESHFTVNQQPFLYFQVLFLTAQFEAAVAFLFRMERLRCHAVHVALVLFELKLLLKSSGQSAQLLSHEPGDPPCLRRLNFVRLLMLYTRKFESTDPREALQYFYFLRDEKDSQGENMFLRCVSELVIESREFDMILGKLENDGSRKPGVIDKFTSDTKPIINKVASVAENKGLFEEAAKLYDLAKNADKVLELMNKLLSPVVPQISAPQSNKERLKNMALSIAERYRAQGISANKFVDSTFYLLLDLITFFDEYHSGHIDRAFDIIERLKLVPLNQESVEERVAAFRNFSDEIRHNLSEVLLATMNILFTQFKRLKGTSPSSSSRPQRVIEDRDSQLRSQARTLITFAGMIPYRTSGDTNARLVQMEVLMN
T7 sequence (Q8N1F7 whole entry): as the sequence (Q8N1F7 whole entry, the tested form may be a part) above
T12 sequence (P52948 1-880): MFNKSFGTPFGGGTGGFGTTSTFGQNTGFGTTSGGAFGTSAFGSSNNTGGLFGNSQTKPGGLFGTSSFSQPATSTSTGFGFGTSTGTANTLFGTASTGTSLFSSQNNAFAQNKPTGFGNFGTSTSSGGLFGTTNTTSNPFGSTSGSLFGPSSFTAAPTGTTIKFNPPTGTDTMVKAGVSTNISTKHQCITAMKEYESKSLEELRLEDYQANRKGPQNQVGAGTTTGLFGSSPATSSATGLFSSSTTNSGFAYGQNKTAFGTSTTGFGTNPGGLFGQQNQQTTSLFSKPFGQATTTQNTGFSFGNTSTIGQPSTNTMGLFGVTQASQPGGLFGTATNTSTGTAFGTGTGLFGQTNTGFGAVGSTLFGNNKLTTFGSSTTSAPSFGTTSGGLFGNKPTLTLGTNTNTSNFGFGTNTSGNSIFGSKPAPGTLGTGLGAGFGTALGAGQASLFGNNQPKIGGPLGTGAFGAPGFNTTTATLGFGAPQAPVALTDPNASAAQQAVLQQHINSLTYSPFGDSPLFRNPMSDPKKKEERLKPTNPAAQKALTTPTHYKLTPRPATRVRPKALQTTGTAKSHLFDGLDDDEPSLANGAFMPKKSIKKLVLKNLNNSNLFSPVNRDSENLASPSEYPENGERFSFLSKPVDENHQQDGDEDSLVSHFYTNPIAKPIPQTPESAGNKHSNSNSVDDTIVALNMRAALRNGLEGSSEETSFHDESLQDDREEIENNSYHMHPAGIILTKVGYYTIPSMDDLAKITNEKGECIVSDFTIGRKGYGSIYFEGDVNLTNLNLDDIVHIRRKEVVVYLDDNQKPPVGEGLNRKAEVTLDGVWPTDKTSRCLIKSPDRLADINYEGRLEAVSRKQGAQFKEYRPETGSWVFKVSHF
T9 sequence (Q8NFH5 whole entry): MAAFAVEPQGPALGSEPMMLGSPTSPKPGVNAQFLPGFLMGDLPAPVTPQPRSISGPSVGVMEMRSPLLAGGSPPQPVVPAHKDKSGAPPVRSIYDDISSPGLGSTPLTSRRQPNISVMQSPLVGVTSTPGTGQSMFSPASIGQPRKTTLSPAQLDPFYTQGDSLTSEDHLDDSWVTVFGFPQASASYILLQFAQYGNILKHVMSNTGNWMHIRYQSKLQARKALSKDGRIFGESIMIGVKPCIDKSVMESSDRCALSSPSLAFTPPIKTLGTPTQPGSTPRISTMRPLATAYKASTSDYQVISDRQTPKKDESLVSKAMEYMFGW

B1: xNup98-Nb1t (as added in the binding assay of Fig. 11C) (VHH)
VHH: QVQLVESGGGPVEAGGSLRLSCAASGRSFSNSVMAWFRQAPGKEREFLSVLNWSSGRTSIADSVKGRFTMSRDPAKITVYLQMNGLKPEDTAVYYCAASNRGSLYTLDNQNRYEDWGQGTQVTVSS
notes: they are in PDB 5E0Q (xNup98-APD·xNup98-Nb1t complex, Pleiner et al, 2015); also called tracking nanobody xNup98-Nb1t; source: E. coli SHuffle, purified
binding result [1]: binds

B2: xNup98-Nb1t, fluorophore-labelled (VHH)
VHH: QVQLVESGGGPVEAGGSLRLSCAASGRSFSNSVMAWFRQAPGKEREFLSVLNWSSGRTSIADSVKGRFTMSRDPAKITVYLQMNGLKPEDTAVYYCAASNRGSLYTLDNQNRYEDWGQGTQVTVSS
notes: as the VHH of m10 with engineered cysteines; source: E. coli SHuffle, purified, labelled with maleimide dye
binding result [2]: binds

B3: xhNup93-Nb4i, biotinylated for BLI (VHH)
VHH: QVQLVESGGGVVQTGDSLMLSCTVSGHTIDNWAMGWFRQTPRKQREFVAAIDKRGTGAIYGNSVKGRFTVSRDNAKNMVYLRMNSLKPEDTAVYFCAVDQLNAGLGDVSYDYDYWGQGTQVTVSS
notes: as the VHH of m1 with two ectopic cysteines; source: E. coli SHuffle, purified
binding result [3]: binds
binding result [4]: binds

B4: xhNup93-Nb4i (VHH)
VHH: QVQLVESGGGVVQTGDSLMLSCTVSGHTIDNWAMGWFRQTPRKQREFVAAIDKRGTGAIYGNSVKGRFTVSRDNAKNMVYLRMNSLKPEDTAVYFCAVDQLNAGLGDVSYDYDYWGQGTQVTVSS
notes: they are in PDB 8CDS (unliganded nanobody) and PDB 7ZOX (complex with xNup93); form used for the cryo-EM complex; for the unliganded crystal it was expressed as a His14-bdSUMO fusion and cleaved; source: E. coli SHuffle, purified (Ni2+ chelate, NEDP1 protease elution, SEC)
binding result [5]: binds

B5: (biotin)-Avi-SUMO^Eu1-xhNup93-Nb4i (VHH)
VHH: QVQLVESGGGVVQTGDSLMLSCTVSGHTIDNWAMGWFRQTPRKQREFVAAIDKRGTGAIYGNSVKGRFTVSRDNAKNMVYLRMNSLKPEDTAVYFCAVDQLNAGLGDVSYDYDYWGQGTQVTVSS
notes: as the VHH of m1; the tag was cleaved by SENP^EuB only for elution; source: E. coli SHuffle, purified; not shown: Avi (biotinylated), N-terminal, kept; SUMO^Eu1, N-terminal, kept
binding result [6]: binds
binding result [7]: binds

B6: xNup93-Nb2t (VHH)
VHH: DVQLVESGGGLVQPGGSLRLSCVASGFTFSRVGMGWVRQAPGKGLEWVSDINASGGTGYADSVKGRFAISRDNAKNTLYLQMNRLKPEDTAVYYCAKMMDTAMIEAGIIKPAGQGTQVTVSS
notes: they are in the PDB entry of the unliganded nanobody (printed as 8CDT in the methods and 8CD7 in the data availability) and in PDB 7ZOX; purified untagged in the cryo-EM complex; for the unliganded crystal expressed as a His14-bdSUMO fusion and cleaved; also called tracking nanobody xNup93-Nb2t; source: E. coli SHuffle, purified
binding result [5]: binds

B7: xhNup35-Nb1t (VHH)
VHH: QVQLVESGGGLVQAGGSLRLSCVGTGNISSAYTMAWYRQAAGKEREVVAGILNGGSTHYADSVKGRFTISRDNAKNTVYLQMNSLQPEDTGVYCCHVVIESTRFVYDHYWGQGTRVTVSS
notes: they are in PDB 8OZB (complex with the human Nup35 RRM homodimer); form of the crystal structure; also called cross-specific anti-Nup35 nanobody; source: E. coli SHuffle, purified (Ni2+ chelate, NEDP1 protease elution, SEC)
binding result [8]: binds

B13: hNup35 (residues 173–248), RRM domain (domain or fragment, human, UniProt Q8NFH5 173-248, looked up)
chain: DSWVTVFGFPQASASYILLQFAQYGNILKHVMSNTGNWMHIRYQSKLQARKALSKDGRIFGESIMIGVKPCIDKSV
notes: Nup35 (also called Nup53 or MP44), human, RRM domain, residues 173-248; also called homodimeric RRM domain of Homo sapiens (h)Nup35; Nup35 RRM; source: E. coli NEB Express, purified, untagged
binding result [14]: binds

Further lines, results first:

binding result [9]: binds
binding result [10]: binds
B8: xhNup35-Nb1t, fluorophore-labelled (VHH)
VHH: QVQLVESGGGLVQAGGSLRLSCVGTGNISSAYTMAWYRQAAGKEREVVAGILNGGSTHYADSVKGRFTISRDNAKNTVYLQMNSLQPEDTGVYCCHVVIESTRFVYDHYWGQGTRVTVSS
notes: as the VHH of m12 with engineered cysteines; source: E. coli SHuffle, purified, labelled with maleimide dye

binding result [11]: binds
B9: xhNup98-Nb2i (VHH)
VHH: QVQLVESGGGLAKPGGSLRLSCVATGTFRSMEDVGWYRQAPGKDRELVAEITTLGKVTYADSVKGRFTISRDDAKNAVYLQMSDLKSEDTAVYYCNIEADQTKGIGYVVYPYWGQGTRVTVSS
notes: they are in PDB 7NQA (complex with xNup98-APD); form of the crystal structure; also called xNup98-Nb2i; source: E. coli SHuffle, purified (Ni2+ chelate, NEDP1 protease elution, SEC)

binding result [12]: binds
binding result [13]: binds
B10: (biotin)-Avi-SUMO^Eu1-xhNup98-Nb2i (VHH)
VHH: QVQLVESGGGLAKPGGSLRLSCVATGTFRSMEDVGWYRQAPGKDRELVAEITTLGKVTYADSVKGRFTISRDDAKNAVYLQMSDLKSEDTAVYYCNIEADQTKGIGYVVYPYWGQGTRVTVSS
notes: as the VHH of m5; the tag was cleaved by SENP^EuB only for elution; source: E. coli SHuffle, purified; not shown: Avi (biotinylated), N-terminal, kept; SUMO^Eu1, N-terminal, kept

binding result [1]: binds
B11: xhNup98-Nb2i (as added in the binding assay of Fig. 11C) (VHH)
VHH: QVQLVESGGGLAKPGGSLRLSCVATGTFRSMEDVGWYRQAPGKDRELVAEITTLGKVTYADSVKGRFTISRDDAKNAVYLQMSDLKSEDTAVYYCNIEADQTKGIGYVVYPYWGQGTRVTVSS
notes: as the VHH of m5; source: E. coli SHuffle, purified

binding result [11]: binds
B12: xhNup98-Nb3i (VHH)
VHH: QVQLVESGGGLVQAGGSLRLSCAASGRTFSTYAMGWFRQAPGKEREFVSACSWSGGITRYADSVKGRFTISRDNAKNTVYLQMNSLKPEDTAVYYCASAASSAAYSGAYYYTSYYDYWGQGTQVTVSS
notes: they are in PDB 7NOW (complex with xNup98-APD); form of the crystal structure; source: E. coli SHuffle, purified (Ni2+ chelate, NEDP1 protease elution, SEC)
